Data: US20150299268A1 (UNIVERSITY OF MARYLAND BALTIMORE, published 2015)

How the values were obtained:
Assay in all cases: capture ELISA
BaL-gp120-E106AD107A = molecular target: T1, BaL-gp120-E106AD107A (HIV-1 BaL)
T1 construct: domain: gp120

BaL-gp120-V75A = molecular target: T2, BaL-gp120-V75A (HIV-1 BaL)
T2 construct: domain: gp120

BaL-gp120-R58AK59A = molecular target: T3, BaL-gp120-R58AK59A (HIV-1 BaL)
T3 construct: domain: gp120

BaL-gp120-Y40A = molecular target: T4, BaL-gp120-Y40A (HIV-1 BaL)
T4 construct: domain: gp120

BaL-gp120-W69A = molecular target: T5, BaL-gp120-W69A (HIV-1 BaL)
T5 construct: domain: gp120

BaL-gp120-F53A = molecular target: T6, BaL-gp120-F53A (HIV-1 BaL)
T6 construct: domain: gp120

BaL-gp120-G495A = molecular target: T7, BaL-gp120-G495A (HIV-1 BaL)
T7 construct: domain: gp120

BaL-gp120-K46A = molecular target: T8, BaL-gp120-K46A (HIV-1 BaL)
T8 construct: domain: gp120

BaL-gp120-K487AK490A = molecular target: T9, BaL-gp120-K487AK490A (HIV-1 BaL)
T9 construct: domain: gp120

BaL-gp120-E47A = molecular target: T10, BaL-gp120-E47A (HIV-1 BaL)
T10 construct: domain: gp120

BaL-gp120-D368R = molecular target: T11, BaL-gp120-D368R (HIV-1 BaL)
T11 construct: domain: gp120

BaL-gp120-D62A = molecular target: T12, BaL-gp120-D62A (HIV-1 BaL)
T12 construct: domain: gp120

BaL-gp120 = molecular target: T13, BaL-gp120 (HIV-1 BaL)
T13 construct: domain: gp120; also called monomeric gp120; monomeric BaL gp120

BaL-gp120-L494A = molecular target: T14, BaL-gp120-L494A (HIV-1 BaL)
T14 construct: domain: gp120

BaL-gp120-T499A = molecular target: T15, BaL-gp120-T499A (HIV-1 BaL)
T15 construct: domain: gp120

BaL-gp120-W45A = molecular target: T16, BaL-gp120-W45A (HIV-1 BaL)
T16 construct: domain: gp120

BaL-gp120-V68A = molecular target: T17, BaL-gp120-V68A (HIV-1 BaL)
T17 construct: domain: gp120

BaL-gp120-D57AD78A = molecular target: T18, BaL-gp120-D57AD78A (HIV-1 BaL)
T18 construct: domain: gp120

BaL-gp120-K500A = molecular target: T19, BaL-gp120-K500A (HIV-1 BaL)
T19 construct: domain: gp120

BaL-gp120-Y39A = molecular target: T20, BaL-gp120-Y39A (HIV-1 BaL)
T20 construct: domain: gp120

BaL-gp120-K33A = molecular target: T21, BaL-gp120-K33A (HIV-1 BaL)
T21 construct: domain: gp120

BaL-gp120-Y61A = molecular target: T22, BaL-gp120-Y61A (HIV-1 BaL)
T22 construct: domain: gp120

BaL-gp120-D78A = molecular target: T23, BaL-gp120-D78A (HIV-1 BaL)
T23 construct: domain: gp120

BaL-gp120-S158A = molecular target: T24, BaL-gp120-S158A (HIV-1 BaL)
T24 construct: domain: gp120

BaL-gp120-T455A = molecular target: T25, BaL-gp120-T455A (HIV-1 BaL)
T25 construct: domain: gp120

BaL-gp120-R476AR480A = molecular target: T26, BaL-gp120-R476AR480A (HIV-1 BaL)
T26 construct: domain: gp120

BaL-gp120-I420R = molecular target: T27, BaL-gp120-I420R (HIV-1 BaL)
T27 construct: domain: gp120; also called -1420R

BaL-gp120-E31A = molecular target: T28, BaL-gp120-E31A (HIV-1 BaL)
T28 construct: domain: gp120

BaL-gp120-P76A = molecular target: T29, BaL-gp120-P76A (HIV-1 BaL)
T29 construct: domain: gp120

BaL-gp120-T162A = molecular target: T30, BaL-gp120-T162A (HIV-1 BaL)
T30 construct: domain: gp120; glycan mutant

BaL-gp120-H105A = molecular target: T31, BaL-gp120-H105A (HIV-1 BaL)
T31 construct: domain: gp120

BaL-gp120-E47AE91A = molecular target: T32, BaL-gp120-E47AE91A (HIV-1 BaL)
T32 construct: domain: gp120

BaL-gp120-S334A = molecular target: T33, BaL-gp120-S334A (HIV-1 BaL)
T33 construct: domain: gp120; glycan mutant

BaL-gp120-I491A = molecular target: T34, BaL-gp120-I491A (HIV-1 BaL)
T34 construct: domain: gp120

BaL-gp120-W35A = molecular target: T35, BaL-gp120-W35A (HIV-1 BaL)
T35 construct: domain: gp120

BaL-gp120-V496A = molecular target: T36, BaL-gp120-V496A (HIV-1 BaL)
T36 construct: domain: gp120

BaL-gp120-P498A = molecular target: T37, BaL-gp120-P498A (HIV-1 BaL)
T37 construct: domain: gp120

BaL-gp120-E32A = molecular target: T38, BaL-gp120-E32A (HIV-1 BaL)
T38 construct: domain: gp120

BaL-gp120-P493A = molecular target: T39, BaL-gp120-P493A (HIV-1 BaL)
T39 construct: domain: gp120

BaL-gp120-E492A = molecular target: T40, BaL-gp120-E492A (HIV-1 BaL)
T40 construct: domain: gp120

BaL-gp120-D57AD62A = molecular target: T41, BaL-gp120-D57AD62A (HIV-1 BaL)
T41 construct: domain: gp120

BaL-gp120-S200A = molecular target: T42, BaL-gp120-S200A (HIV-1 BaL)
T42 construct: domain: gp120; also called 5200A

BaL-gp120-R476A = molecular target: T43, BaL-gp120-R476A (HIV-1 BaL)
T43 construct: domain: gp120

BaL-gp120-V44A = molecular target: T44, BaL-gp120-V44A (HIV-1 BaL)
T44 construct: domain: gp120

FLSC = molecular target: T45, FLSC (HIV-1, UniProt P01730 26-208)
T45 construct: not shown: linker of FLSC not described

B1: N60-B1.1 (antibody, V domains shown)
VH: QLQLQESGPGLVKPSGTLSLTCSVSGGSMNGRNIYWAWIRQTPGKGLEWIGSVDVSDEDAGRTFYKWPIKSRASISADTSKNQFSLKLSSVTVADTGVYYCARETLYYVGNGYYYPLDVFYYNYYMDVWGKGTTVSVSS
VL: not shown
notes: also called bnAb N60-B1.1
% Binding (BaL-gp120-E106AD107A): 36% | % Binding (BaL-gp120-V75A): 104% | % Binding (BaL-gp120-R58AK59A): 92% | % Binding (BaL-gp120-Y40A): 139% | % Binding (BaL-gp120-W69A): 84% | % Binding (BaL-gp120-F53A): 90% | % Binding (BaL-gp120-G495A): 106% | % Binding (BaL-gp120-K46A): 50% | % Binding (BaL-gp120-K487AK490A): 31% | % Binding (BaL-gp120-E47A): 78% | % Binding (BaL-gp120-D368R): 99% | % Binding (BaL-gp120-D62A): 80% | % Binding (BaL-gp120): 100% | % Binding (BaL-gp120-L494A): 99% | % Binding (BaL-gp120-T499A): 102% | % Binding (BaL-gp120-W45A): 84% | % Binding (BaL-gp120-V68A): 68% | % Binding (BaL-gp120-D57AD78A): 103% | % Binding (BaL-gp120-K500A): 94% | % Binding (BaL-gp120-Y39A): 121% | % Binding (BaL-gp120-K33A): 76% | % Binding (BaL-gp120-Y61A): 92% | % Binding (BaL-gp120-D78A): 108% | % Binding (BaL-gp120-S158A): 3% | % Binding (BaL-gp120-T455A): 73% | % Binding (BaL-gp120-R476AR480A): 5% | % Binding (BaL-gp120-I420R): 22% | % Binding (BaL-gp120-E31A): 103% | % Binding (BaL-gp120-P76A): 102% | % Binding (BaL-gp120-T162A): 100% | % Binding (BaL-gp120-H105A): 88% | % Binding (BaL-gp120-E47AE91A): 73% | % Binding (BaL-gp120-S334A): 91% | % Binding (BaL-gp120-I491A): 85% | % Binding (BaL-gp120-W35A): 132% | % Binding (BaL-gp120-V496A): 107% | % Binding (BaL-gp120-P498A): 101% | % Binding (BaL-gp120-E32A): 108% | % Binding (BaL-gp120-P493A): 92% | % Binding (BaL-gp120-E492A): 113% | % Binding (BaL-gp120-D57AD62A): 76% | % Binding (BaL-gp120-S200A): 22% | % Binding (BaL-gp120-R476A): 57% | % Binding (BaL-gp120-V44A): 114% | % Binding (FLSC): 10%
